# Results: publication PMC12540712
# Biological target: And-1 HMG domain, 984-1129 (UniProt O75717)
# Assay: GST-HMG pull-down of SepB, immunoblot
# Conditions: reference: wild-type SepB; sites T826
substance,measurement,value
"And-1 SepB domain, 330-984 (from UniProt O75717) T826A SepB",binding against the reference,stronger
